Measured values from patent US20190153106A1 (TRUSTEES OF BOSTON UNIVERSITY, published 2019).
Where “and” joins values, the source holds several entries; their conditions need not be identical. Identical values can stand only once. Like-named read-outs stand apart in the source and are kept apart here.

T1: rat DEspR (rat)
T1 chain: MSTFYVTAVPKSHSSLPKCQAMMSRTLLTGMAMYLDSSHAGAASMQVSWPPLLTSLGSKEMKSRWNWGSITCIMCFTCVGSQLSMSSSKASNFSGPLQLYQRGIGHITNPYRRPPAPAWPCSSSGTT

T2: antigenic peptide (AP) EMKSRWNWGS (human/monkey/rat DEspR epitope)
T2 construct: also called 6G8G7 antigenic peptide; partial peptide
T2 peptide: EMKSRWNWGS

B1: 6g8^IgG4 humab1 (6g8g7-derived IgG4 humanized monoclonal antibody 1) (antibody)
heavy: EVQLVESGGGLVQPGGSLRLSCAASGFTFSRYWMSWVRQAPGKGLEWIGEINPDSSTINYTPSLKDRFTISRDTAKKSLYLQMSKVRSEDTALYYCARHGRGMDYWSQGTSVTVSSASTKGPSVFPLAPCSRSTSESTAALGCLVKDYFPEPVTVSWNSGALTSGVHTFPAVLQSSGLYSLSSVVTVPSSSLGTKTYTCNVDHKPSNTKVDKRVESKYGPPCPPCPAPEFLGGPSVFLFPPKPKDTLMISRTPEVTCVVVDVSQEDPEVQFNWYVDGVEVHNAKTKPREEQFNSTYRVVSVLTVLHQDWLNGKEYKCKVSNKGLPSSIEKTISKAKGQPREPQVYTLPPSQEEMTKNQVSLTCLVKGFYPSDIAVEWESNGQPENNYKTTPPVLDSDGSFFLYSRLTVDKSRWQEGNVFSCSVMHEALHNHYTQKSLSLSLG
light: DIVLTQSPDILSVSLGERATVNCKASQNVDSNVAWYQQKPGHPPKLLIYSASYRYSRVPDRISGSGSGTDFTLTISNLQAEDVAVYYCQQYHSYPLLAFGAGTKLELKRTVAAPSVFIFPPSDEQLKSGTASVVCLLNNFYPREAKVQWKVDNALQSGNSQESVTEQDSKDSTYSLSSTLTLSKADYEKHKVYACEVTHQGLSSPVTKSFNRGEC
notes: Hinge-stabilized (S228P) human IgG4 / human kappa, transiently expressed in HEK293; AF568-labelled in the FACS assays; also called 6G8IgG4 humanized monoclonal antibody 1 (mAb 1); lead candidate humab
B2: 6g8^IgG1 humab1 (IgG1 6G8G7 humanized monoclonal antibody) (antibody)
heavy: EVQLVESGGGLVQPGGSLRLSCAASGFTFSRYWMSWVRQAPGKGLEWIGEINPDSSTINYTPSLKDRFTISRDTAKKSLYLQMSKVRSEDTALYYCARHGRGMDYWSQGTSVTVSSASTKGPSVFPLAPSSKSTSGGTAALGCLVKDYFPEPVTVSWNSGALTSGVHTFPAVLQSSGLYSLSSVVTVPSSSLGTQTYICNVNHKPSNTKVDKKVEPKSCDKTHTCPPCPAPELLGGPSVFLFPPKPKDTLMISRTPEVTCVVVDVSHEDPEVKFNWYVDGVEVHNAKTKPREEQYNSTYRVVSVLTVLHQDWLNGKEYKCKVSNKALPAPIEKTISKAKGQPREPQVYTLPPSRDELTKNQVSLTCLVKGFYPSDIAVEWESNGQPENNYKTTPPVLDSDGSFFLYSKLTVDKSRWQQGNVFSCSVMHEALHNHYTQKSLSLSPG
light: B1 light
notes: Human IgG1 / human kappa
B3: 7C5B2 mouse anti-human DEspR monoclonal antibody (antibody, V domains shown)
VH: QVQLKESGPGLVAPSQSLSITCTVSGFSLKSYAVSWVRQPPGKGLEWLGVIWGDGSTDYHSALISRLSISKDNSKSQFFLRLNSLQTDDTATYYCARGTGTGFAYWGQGTLVTVSA
VL: DVVMTQTPLSLPVSLGDQASISCRSSQSLVHSNGNTYLHWYLQKPGQSPKLLIYKVSNRFSGVPDRFSGSGSGTDFTLKISRVEAEDLGIYFCSQCTHIPWTFGGGTNLEIK
notes: Mouse hybridoma antibody raised against the 9-aa N-terminal peptide of human DEspR; IgG2b was used as its isotype control; AF568-labelled in the FACS and internalization assays; also called 7C5-murine monoclonal antibody; HV2KV2
B4: human DEspR (dual endothelin-1/VEGF signal peptide receptor) (receptor)
chain: MTMFKGSNEMKSRWNWGSITCIICFTCVGSQLSMSSSKASNFSGPLQLYQRELEIFIVLTDVPNYRLIKENSHLHTTIVDQGRTV
modifications: glycosylated (~17 kDa band, PNGase-sensitive)
notes: On intact Panc1 cells / Panc1 CSCs in the FACS assays and on HUVECs in the angiogenesis assays; In pulldowns and Western blots it came from membrane proteins of U87 CSCs and hDEspR-Cos1 permanent transfectants; also called hDEspR; DEAR
B5: 6G8G7 murine anti-DEspR monoclonal antibody (antibody, V domains shown)
VH: EVQLQESGGGLVQPGGSLKLSCAASGFDFSRYWMSWVRQAPGKGLEWIGEINPDSSTINYTPSLKDKFIISRDTAKKTLYLQMSKVRSEDTALYYCARHGRGMDYWSQGTSVTVSS
VL: DIVLTQTNQIMSASVGDRVSVTCKASQNVDSNVAWYQQKPGHSPKALIYSASYRYSRVPDRITGSGSGTDFTLTITNVQSKDLADYFCQQYHSYPLLAFGAGTKLELKR
notes: Mouse hybridoma antibody, detected with anti-mouse IgG2b; also called 6g8 mumab; 6g8-mumab
B6: VEGFsp17 (VEGF signal peptide 17) (ligand)
peptide: MNFLLSWVHWSLALLLY
B7: endothelin-1 (ligand, UniProt P05305 53-73, looked up)
peptide: CSCSSLMDKECVYFCHLDIIW
notes: also called ET1; ET-1
B8: VEGFsp26 (VEGF signal peptide 26) (ligand)
peptide: MNFLLSWVHWSLALLLYLHHAKWSQA

Experiments:
rat DEspR = target: T1, rat DEspR; assay: cell-based or functional assay
[1] = target: B4; assay: cell-based or functional assay
[2] = target: T2, antigenic peptide (AP) EMKSRWNWGS; assay: ELISA on antigenic peptide EMKSRWNWGS
Procedure: Next, the EC50 of binding to the antigenic peptide was determined by ELISA, as shown in FIGS. 35A-35B, comparing two IgG4 6g8g7 humanized antibody candidates (including humab1 comprising SEQ ID NOs: 63 and 65 and humab2 comprising SEQ ID NO: 65 with substitutions in SEQ ID NO: 26 at Kabat residues 83V and 85Y to give 83D and 85Y), and the IgG1 6G8G7humanized monoclonal antibody (comprising SEQ ID NOs: 61 and 65), and 6G8G7 murine monoclonal antibody (“6g8 mumab”).
(§1) Neutrophils (50000/well) were incubated in the absence or presence of mAbs at 37° C. × 4 hrs and live cells counted by using Trypan blue. HUVEC-dependent angiogenesis (20,000 cells/well) was performed as described in the presence or absence of mAbs. Number of polygons and number of branch points were determined after 14 hrs of incubation at 37° C. ND, not done, indeterminate, value greater than upper limit of max dose used in these experiments.

[3] = target: B4; assay: FACS, AF568-labelled mAb on intact DEspR+ human cells (Panc1), 4°C
Procedure: Binding was determined by FACS analysis.
as §1

[4] = target: B4; assay: saturation binding by FACS, AF568-labelled mAb on DEspR+ Panc1 cells
Procedure: (§2) Saturation binding curves of monoclonal antibody (mAb) binding to DEspR on Panc1 CSCs. […] Specific binding was determined by FACS analysis using 100,000 cells in 0.25 ml containing increasing concentrations of mAbs. Incubations were done at 4° C. for 20 min and immediately subjected to FACS analysis on a BDTM LSRII Flow cytometer. Each data point was performed in duplicate.
Fully human VH5/VK1 has a slightly better Kd than VH3/VK2 fully human composite antibodies. […] (FIG. 16).

[5] = target: B4; assay: FACS saturation binding of AF568-labelled mAb to Panc1 CSCs, 4 °C, 20 min
Procedure: as §2

galectin-1 = target: T3, galectin-1 (human, UniProt P09382 2-135); assay: Western blot of the DEspR complex
T3 construct: also called gal1; recombinant galectin-1 protein

[6] = target: T2, antigenic peptide (AP) EMKSRWNWGS; assay: ELISA on antigenic peptide EMKSRWNWGS
[7] = target: B4; assay: cell-based or functional assay; remark: listed apart in the source
[8] = target: B4; assay: FACS displacement of AF568-7C5B2 (10 µg/ml) from Panc1 CSCs; peptide at 100x molar excess
Procedure: 50,000 cells were reacted with 10 µg/ml AF568-labelled 7C5B2 monoclonal antibody (mAb) at 4° C. for 20 min in the absence or presence of the different peptides at 100× molar excess. Samples were immediately subjected to FACS analysis for quantification of DEspR+ cells. Samples were run in duplicates. AngII, angiotensinII; ET1, endothelin-1 (DEspR ligand); sp17, VEGFsp17 (DEspR ligand); sp26, VEGFsp26 (DEspR ligand). Data presented as Mean±SD.

T3 sequence (P09382 2-135 limits assumed): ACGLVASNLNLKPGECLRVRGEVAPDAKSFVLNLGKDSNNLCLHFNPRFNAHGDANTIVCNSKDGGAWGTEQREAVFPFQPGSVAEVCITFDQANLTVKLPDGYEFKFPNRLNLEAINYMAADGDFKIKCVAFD

Binder | Rat Neutrophil survival, IC50 (rat DEspR) [µg/mL] | Human Angiogenesis assay (HUVECs): branch points, IC50 [1] [µg/mL] | Human Angiogenesis assay (HUVECs): polygons, IC50 [1] [µg/mL] | Bmax (A450) [2] [A450] | EC50 [2] [µg/mL] | Bmax (% + cells) [3] [% + cells] | EC50 [3] | also measured
B1 | 1.16 | 4.3 | 2.6 | 2.62 | 11.7 | 31.5 | ~4.3 nM and 0.64 µg/mL | –
B2 | 6.98 | 10.4 | 9.1 | 3.09 | 13.4 | 21.6 | 1.3 µg/mL and 42.9 nM | –
B3 | – | – | – | – | – | – | – | Kd [4]: ~5.2 µg/mL; Kd [5]: 5.2 µg/mL
B4 | – | – | – | – | – | – | – | binding result (galectin-1): binds
B5 | > 30 | > 30 | > 30 | 6.36 | 2.96 | 35.6 | 5.39 µg/mL and 178 nM | EC50 [6]: 4.96 µg/mL; Kd [4]: ~5.2 µg/mL; Kd [5]: 5.2 µg/mL
B6 | – | – | – | – | – | – | – | stimulation of HUVEC angiogenesis, EC50 based on total tube length [7]: 1.98 nM
B7 | – | – | – | – | – | – | – | binding result [8]: binds
B8 | – | – | – | – | – | – | – | inhibition of HUVEC angiogenesis, IC50 based on total tube length [7]: 1.9 nM
